First the molecules themselves.
B1: H-PR-B06 (antibody, V domains shown)
VH: DVKLVESGGGLVKPGGSLKLACAASGFTFSSYTMSWVRQTPEKRLEWVATISSGGSYTYYPDSVKGRFTISRDNAKNTLYLQLSSLKSEDTAMYYCTRDRYYSTTPDWYFDVWGAGTTVTVSS
VL: DIVLTQSPATLSVTPGDSVSLSCRATQIIFNNLHWYQQKSHESPRLLITYTSQSISGIPSRFSGSGSGTDFTLTINSVETEDFGMYFCQQSNTWPRTFGGGTKLEIK
B2: HP-PR02H02 (antibody, V domains shown)
VH: EVMLVESGGGLVKPGGSLKLACAASGFTFSSYTMSWVRQTPEKRLEWVATISSGGSYTYYPDSVKGRFTISRDNAKNTLYLQLSSLKSEDTAMYYCTRDRYYSTTPDWYFDVWGAGTTLTVSS
VL: DIVITQSPATLSVTPGDSVSLSCRATQIIFNNLHWYQQKSHESPRLLITYTSQSISGIPSRFSGSGSGTDFTLTINSVETEDFGMYFCQQSNTWPRTFGGGTKLEIK
B3: HP-PR01B01 (antibody, V domains shown)
VH: EVHLVESGPDLVKPSQSLSLTCTVTGYSITSGYNWHWIRQFPGNKLEWMGYIHYSGSTKYDPSLKSRISFTRDTSRNQFFLQLNSVTTEDRATYYCARSEAGGYSWFAYWGQGTLVTVSA
VL: DIVMTQSPAIMSASPGEKVTMACSASSSVNYMHWYQQKSGTSPKRWIYDTSKLASGVPARFSGSGSGTSYSLTISSMEAEDAATYYCQQWSSNPLTFGAGTKLELK

Results on three molecules are retold here after patent publication US20260285993 (published 2026).

The target in the experiment is T1, cynomolgus PRLR ECD (cynomolgus monkey).
T1 chain: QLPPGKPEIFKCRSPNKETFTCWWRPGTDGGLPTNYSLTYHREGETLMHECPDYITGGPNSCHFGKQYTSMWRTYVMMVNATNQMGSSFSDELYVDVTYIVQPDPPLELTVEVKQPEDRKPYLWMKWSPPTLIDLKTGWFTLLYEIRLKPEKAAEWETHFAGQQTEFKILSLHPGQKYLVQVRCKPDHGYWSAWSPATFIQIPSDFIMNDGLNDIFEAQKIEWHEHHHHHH
In words: ELISA. On the technique in general: ELISA stands for enzyme-linked immunosorbent assay.
Turning to B1, the binding result is “no binding”.

For B2, the binding result is listed as “no binding”.

Take B3: the binding result is given as “no binding”.
